Test results from patent US10336829B2, “Intracellular delivery compounds” (Sorrento Therapeutics, Inc., priority 2015, dated 2019).

Key:
MCF-10A cells = assay: Caveolin and clathrin-dependent compound 901a uptake in MCF-10A cells; format: cell-based, human; conditions: 30 min pretreatment
From the text: Clathrin-mediated endocytosis is mediated by small vesicles that have a morphologically characteristic coat made up of a complex of proteins that are mainly associated with the cytosolic protein clathrin. Caveolae are the most common reported non-clathrin-coated plasma membrane buds, which exist on the surface of many, but not all cell types. They consist of the cholesterol-binding protein caveolin (Vip21) with a bilayer enriched in cholesterol and glycolipids. Both clathrin mediated endocytosis and caveolae transport extracellular molecules into the cell. 5,000 cells were seeded per well in a 96 well plate, overnight. Cells were pretreated with the clathrin inhibitor Pitstop2 (30 uM or 60 uM) or the caveolin inhibitor filipin (0.5 ug/ml or 1.0 ug/ml) for 30 minutes. […] Cells were fixed and imaged with IncuCyte. DMSO and antibody only were used as controls.

[1] = tested on: cellular antigens in U251 cells; assay: Cell binding of naked ST3G12 versus compound 901a in permeabilized U251 cells (HTFC); conditions: 45 min room temperature, PE anti-human IgG
Description: After 45 minutes at room temperature, cells were washed twice and incubated with phycoerythrin (PE) conjugated-anti-human IgG for 20 minutes at room temperature in the dark. Cells were then washed and analyzed by high throughput flow cytometry (HTFC). The results are shown in FIG. 9 for assessment of antibody binding to cellular antigens in U251 cells.

STAT3 [2] = molecular target: T1, STAT3 (Homo sapiens, UniProt P40763); assay: Biacore T200 affinity to recombinant human STAT3-GST; conditions: Biacore T200, 1:1 (Langmuir) binding model
T1 sequence (P40763 whole entry): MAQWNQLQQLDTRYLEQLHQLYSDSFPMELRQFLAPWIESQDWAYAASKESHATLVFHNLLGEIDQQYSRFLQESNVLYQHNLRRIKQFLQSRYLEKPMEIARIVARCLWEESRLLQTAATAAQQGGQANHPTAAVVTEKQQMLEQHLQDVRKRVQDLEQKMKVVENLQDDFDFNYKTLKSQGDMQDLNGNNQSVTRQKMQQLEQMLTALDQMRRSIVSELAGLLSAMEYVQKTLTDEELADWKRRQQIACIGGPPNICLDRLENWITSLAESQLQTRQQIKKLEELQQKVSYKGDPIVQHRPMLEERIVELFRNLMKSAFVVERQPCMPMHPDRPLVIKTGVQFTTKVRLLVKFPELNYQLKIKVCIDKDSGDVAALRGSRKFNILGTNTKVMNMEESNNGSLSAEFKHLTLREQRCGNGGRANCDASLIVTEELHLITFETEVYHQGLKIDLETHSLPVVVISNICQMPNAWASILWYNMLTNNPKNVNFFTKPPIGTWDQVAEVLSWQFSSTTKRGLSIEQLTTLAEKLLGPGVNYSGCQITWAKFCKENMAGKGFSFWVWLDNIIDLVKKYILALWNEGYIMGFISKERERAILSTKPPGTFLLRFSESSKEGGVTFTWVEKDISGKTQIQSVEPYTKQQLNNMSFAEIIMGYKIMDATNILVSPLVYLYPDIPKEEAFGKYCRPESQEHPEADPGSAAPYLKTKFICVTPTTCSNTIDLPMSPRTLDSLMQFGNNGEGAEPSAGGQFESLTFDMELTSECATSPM
Description: (§1) Anti-human Fc antibody (GE, BR-1008-39) was immobilized on a CMS sensor chip to approximately 1000 RU using standard NHS/EDC coupling methodology. Antibodies (approximately 10 ug/ml) were captured for 60 seconds at a flow rate of 10 ul/min Recombinant human STAT3-GST was serially diluted 2-fold into running buffer (HBS-EP+, starting from […]). All measurements were conducted at a flow rate of 30 ul/min Surfaces were regenerated with 3M MgCl2 (from human antibody kit) for 60 seconds. A 1:1 (Langmuir) binding model was used to fit the data.

GST protein = assay: Biacore binding to GST protein; conditions: Biacore assay
Description: as §1

U251 cells = assay: Cell penetration in U251 cells by microscopy; format: cell-based; conditions: 20 ug/mL, 2 hours at 37° C.
Description: Briefly, previously cleaned glass coverslips were coated with collagen for 2 hours at 37° C. 100,000 U251 cells were seeded on the coverslips. Media was removed, and cells were rinsed once with fluorobrite. Next, 20 ug/mL of the specified antibody was added for 2 hours at 37° C. Cells were fixed in 4% PFA for 15 minutes and then permeabilized with 0.1% TritonX for 15 minutes. Cells were blocked with 3% BSA for 30 minutes and 1:250 GAH-Alexa fluor 488 was added for 1 hour. Next, 200× wheat germ agglutinin Alexa fluor 555 (WGA 555) and 1:1000 DAPI was added for 30 minutes. Cells were washed 3× with PBS and mounted with prolong gold anti-fade.

STAT3 [3] = molecular target: T1, STAT3; assay: Cell binding assay of anti-STAT3 antibodies, fixed and permeabilized cells, flow cytometry; design: endogenous in cells; conditions: MDA-MB-468 and U251 cells, serial dilutions, PE anti-human IgG
Description: Next, the binding of the candidate anti-STAT3 antibodies to cellular targets was tested in cell binding assays using MDA-MB-435 breast cancer cells and U251 cells. The cells were seeded overnight in a 96 well plate, then fixed with PFA and permeabilized with methanol. Cells were incubated with serial dilutions of the anti-STAT3 antibody candidates ST1A5, ST3G12 and ST5G12 for one hour and 30 minutes. Following incubation, the cells were washed and incubated for 30 minutes with phycoerythrin (PE) conjugated anti-human IgG. Fluorescence was measured on an Intellicyte high-throughput flow cytometry analyzer. […] Bevacizumab (Avastin), a monoclonal antibody that inhibits vascular endothelial growth factor A (VEGF-A) was used as a negative control.

STAT3 [4] = molecular target: T1, STAT3; assay: IL-6-stimulated STAT3 phosphorylation ELISA in MCF-10A and MCF-7 cells; format: cell-based; design: endogenous in cells; conditions: overnight pre-treatment, IL-6 10 or 40 ng/ml 20 min
Description: Cells were pre-treated overnight with antibody, and then stimulated with various concentrations of IL-6 for 20 minutes (10 ng/ml or 40 ng/ml). IL-6 is a STAT3 activator. Cells were then lysed and the protein lysates were subjected to ELISA to determine the phosphorylation status. […] “OS-AIP” refers to an oligosaccharide conjugated bacterial AIP protein, used as a control.

## O=C1NC(=NS(=O)(=O)c2cccc3ccccc23)S/C1=C\c1ccc(Br)cc1 [PS2, Pitstop2]
MCF-10A cells; inhibitor 30 uM and 60 uM
  effect of inhibitor on compound 901a uptake: inhibited compound 901a uptake

## CCCCC[C@@H](O)[C@H]1C(=O)O[C@H](C)[C@@H](O)/C=C/C=C/C=C/C=C/C=C(\C)[C@@H](O)C[C@H](O)C[C@H](O)C[C@H](O)C[C@H](O)C[C@H](O)C[C@@H]1O [filipin]
MCF-10A cells; inhibitor 0.5 ug/ml
  effect of inhibitor on compound 901a uptake: little effect
MCF-10A cells; inhibitor 1.0 ug/ml
  effect of inhibitor on compound 901a uptake: greater effect

B1: ST3G12: Human anti-human STAT3 antibody; heavy chain variable SEQ ID NO: 3, light chain variable SEQ ID NO: 4 (antibody, V domains shown)
VH: QVQLVQSGAEVKKPGASVKVSCKASGYTFTSYYMHWVRQAPGQGLEWMGIINPSGGSTSYAQKFQGRVTMTRDTSTSTVYMELSSLRSEDTAVYYCARSDYVHSFDIWGQGTMVTVSS
VL: QPVLTQPPSASALLGASIKLTCTLSSEHSTYTVEWYQQRPGRSPQYIMNVKSDGSYNKGDGIPDRFMGSSSGADRYLTFSNLQSDDEAEYHCGESHRIDGQVGVVFGGGTKLTVL
[1]
  binding to cellular antigens in U251 cells: considerably lower
STAT3 [2]
  Rmax: 174 RU
  kd: 0.000322 s⁻¹
STAT3 [2]; STAT3-GST from 100 nm
  ka: 59700 M⁻¹ s⁻¹
GST protein
  binding to GST protein: No binding
U251 cells
  cell penetration / internalization: no internalization
STAT3 [3]
  binding to STAT3 / cellular antigens (MFI): bound STAT3
STAT3 [4]
  effect on STAT3 phosphorylation: little to no effect
